Source: patent US20230270825A1, “STAPLED OLEFIN CO-AGONISTS OF THE GLUCAGON AND GLP-1 RECEPTORS” (Merck Sharp & Dohme LLC, priority 2019, published 2023)
Numbered stars: 1 amine (or outer) side, 2 acyl side, 3 side chain; on linkers, the order of the positions; unused ones are H or OH. Bridge positions count the residues as written; N and C are the ends. Square brackets hold non-standard residues; d marks the D form. Side chains are listed from the residue outwards. Ends that are not written are not given here. Peptide text beside a SMILES is read from it. * marks the point of attachment. R6me = (R)-2-amino-2-methyloct-7-enoic acid, C=CCCCC[C@@](C)(N[*:1])C(=O)[*:2]; Nle(6-ylidene) = O=C([C@H](CCCC=[*:3])N[*:1])[*:2]; S7 = C[C@@](CCCCCC=[*:3])(N[*:1])C(=O)[*:2]; X1 = C[C@](CCCCC=[*:3])(N[*:1])C(=O)[*:2]; Gly(pent-4-enyl) = C=CCCC[C@H](N)C(=O)O; γGlu = O=C(O)[C@H](CCC(=O)[*:2])N[*:1]; Palmitoyl = CCCCCCCCCCCCCCCC(=O)*; S5 = C=CCCC[C@](C)(N)C(=O)O; Aib = CC(C)(N)C(=O)O

Key:
[1] = molecular target: T1, human GCGR (Homo sapiens, UniProt P47871); test: cAMP activity assay, cells expressing human GCGR (HitHunter cAMP XS); format: cell-based; details: for hGCGR/hGLP1R (hTone): ratio of human GCGR EC50 to human GLP1R EC50
T1 construct: expressed in transfected cells; assay-ready frozen cells grown with Blasticidin and Hygromycin
Experimental: (§1) Activity of the peptides at the Glucagon receptor (GCGR) and GLP-1 receptor (GLP1R) was measured in a cAMP activity assay.
(§2) Peptides were dissolved in 100% DMSO and serially diluted to generate 10 point titrations. The peptide solutions were then transferred into 384-well assay plates (150 nL/well).
(§3) Assay ready frozen cells expressing human GLP1R or human GCGR were suspended in growth media consisting of DMEM medium (GIBCO), 10% FBS (GIBCO), 1x NEAA(GIBCO), 1x P/S (GIBCO), 10ug/ml Blasticidin (GIBCO) and 200 µg/mL Hygromycin (GIBCO). Cells were then diluted in assay buffer consisting of PBS (GIBCO), 7.5% BSA (Perkin Elmer), 100 µM RO 20-1724 (Sigma), with or without 20% human serum (MP Biomedical). The cell suspensions (15 µL) were then added to the assay plates containing the peptide solutions (30,000 cells/well for human GCGR; 10.000 cells/well for human GLP1R). The cells were incubated for 1 hour at room temperature in the dark. Production of cAMP was determined using HitHunter™ cAMPXS kits (DiscoverX) following manufacturer protocol. The plates were incubated for overnight at room temperature in the dark. Luminescence was measured using an EnVision Multilabel plate reader (Perkin Elmer). Native GLP-1 and Glucagon (Bachem) are used as control peptides. EC50 values were calculated using uses a 4 parameter logistic fit based on the Levenberg-Marquardt algorithm.

[2] = molecular target: T2, human GLP1R (Homo sapiens, UniProt P43220); test: cAMP activity assay, cells expressing human GLP1R (HitHunter cAMP XS); format: cell-based; details: cAMP production, 1 hour at room temperature; assay buffer with or without 20% human serum (not stated which)
T2 construct: expressed in transfected cells; assay-ready frozen cells grown with Blasticidin and Hygromycin
Experimental: as §1, §2, §3

[3] = molecular target: human GLP-1 receptor (GLP1R) (human, UniProt P43220); test: cell-based or functional assay
[4] = molecular target: human Glucagon receptor (GCGR) (human, UniProt P47871); test: cell-based or functional assay

T1 sequence (P47871 26-477): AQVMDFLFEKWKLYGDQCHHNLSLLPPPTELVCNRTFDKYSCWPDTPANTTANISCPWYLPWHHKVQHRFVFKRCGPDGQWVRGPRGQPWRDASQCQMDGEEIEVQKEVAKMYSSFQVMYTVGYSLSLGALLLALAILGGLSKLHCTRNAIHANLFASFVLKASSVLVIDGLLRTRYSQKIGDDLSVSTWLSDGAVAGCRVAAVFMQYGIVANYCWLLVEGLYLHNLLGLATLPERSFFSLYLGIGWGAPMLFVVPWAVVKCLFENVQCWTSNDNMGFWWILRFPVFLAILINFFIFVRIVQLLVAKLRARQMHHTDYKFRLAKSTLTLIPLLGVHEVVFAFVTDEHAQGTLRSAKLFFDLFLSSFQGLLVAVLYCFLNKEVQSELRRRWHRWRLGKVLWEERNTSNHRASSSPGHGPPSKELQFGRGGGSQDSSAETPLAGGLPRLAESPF
T2 sequence (P43220 24-463): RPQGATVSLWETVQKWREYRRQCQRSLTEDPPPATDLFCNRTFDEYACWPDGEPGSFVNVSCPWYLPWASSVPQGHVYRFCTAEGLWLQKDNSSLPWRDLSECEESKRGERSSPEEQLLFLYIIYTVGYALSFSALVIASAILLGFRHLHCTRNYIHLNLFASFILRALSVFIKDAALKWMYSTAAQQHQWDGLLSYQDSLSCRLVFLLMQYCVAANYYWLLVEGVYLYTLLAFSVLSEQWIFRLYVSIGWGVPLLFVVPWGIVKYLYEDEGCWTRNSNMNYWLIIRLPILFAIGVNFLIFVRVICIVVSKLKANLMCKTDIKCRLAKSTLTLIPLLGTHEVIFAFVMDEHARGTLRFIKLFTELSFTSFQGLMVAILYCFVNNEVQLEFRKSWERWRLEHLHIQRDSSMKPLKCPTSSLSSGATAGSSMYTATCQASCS

Row | Molecule | hGCGR/hGLP1R (hTone) [1] | EC50 [2] [nM] | EC50 ([1]; cAMP production, 1 hour at room temperature, assay buffer with or without 20% human serum (not stated which)) [nM] | GLP1R EC50 human (cAMP activity assay) [3] [nM] | GCGR EC50 human (cAMP activity assay) [4] [nM]
1 | CC(C)C[C@@H]1NC(=O)[C@H](Cc2c[nH]c3ccccc23)NC(=O)[C@@H](NC(=O)[C@@H](NC(=O)[C@H](Cc2ccccc2)NC(=O)[C@H](CC(=O)O)NC(=O)[C@H](CCC(N)=O)NC(=O)[C@H](C)NC(=O)[C@H](C)NC(=O)[C@H](CCCNC(=N)N)NC(=O)C(C)(C)NC(=O)[C@H](CC(=O)O)NC(=O)[C@H](CC(C)C)NC(=O)[C@H](Cc2ccc(O)cc2)NC(=O)[C@H](CCCCN)NC(=O)[C@H](CO)NC(=O)[C@H](CCCCN)NC(=O)[C@H](CC(=O)O)NC(=O)[C@H](CO)NC(=O)[C@@H](NC(=O)[C@H](Cc2ccccc2)NC(=O)[C@@H](NC(=O)CNC(=O)[C@H](CCC(N)=O)NC(=O)C(C)(C)NC(=O)[C@@H](N)Cc2c[nH]cn2)[C@@H](C)O)[C@@H](C)O)C(C)C)CCCC=CCCC[C@@H](C(=O)N[C@H](C(=O)N[C@@H](CCCCN)C(=O)N[C@@H](CCC(N)=O)C(=O)O)[C@@H](C)O)NC(=O)[C@H](CC(C)C)NC1=O [compound 18] (H-H[Aib]QGTFTSDKSKYLD[Aib]RAAQDFV[Nle(6-ylidene)]WLL[Nle(6-ylidene)]TKQ-OH; staple 24-28) | 33.1 | 0.13 | – | – | –
2 | CC(C)C[C@H](NC(=O)[C@H](Cc1ccc(O)cc1)NC(=O)[C@H](CCCCN)NC(=O)[C@H](CO)NC(=O)[C@H](CCCCN)NC(=O)[C@H](CC(=O)O)NC(=O)[C@H](CO)NC(=O)[C@@H](NC(=O)[C@H](Cc1ccccc1)NC(=O)[C@@H](NC(=O)CNC(=O)[C@H](CCC(N)=O)NC(=O)[C@@H](CO)NC(=O)[C@@H](N)Cc1c[nH]cn1)[C@@H](C)O)[C@@H](C)O)C(=O)N[C@@H](CC(=O)O)C(=O)N[C@@H](CCC(=O)O)C(=O)N[C@]1(C)CCCCC=CCCCCC[C@@](C)(C(=O)N[C@@H](Cc2c[nH]c3ccccc23)C(=O)N[C@@H](CC(C)C)C(=O)N[C@@H](CC(C)C)C(=O)N[C@@H](CC(=O)O)C(=O)N[C@H](C(N)=O)[C@@H](C)O)NC(=O)[C@H](C(C)C)NC(=O)[C@H](Cc2ccccc2)NC(=O)[C@H](CC(=O)O)NC(=O)[C@H](CCC(N)=O)NC(=O)[C@H](C)NC(=O)[C@H](C)NC1=O [compound 9] (H-H[dS]QGTFTSDKSKYLDE[X1]AAQDFV[S7]WLLDT-NH2; staple 17-24) | – | – | 5 | – | –
3 | CCCCCCCCCCCCCCCC(=O)N[C@@H](CCC(=O)N[C@@H](CCC(=O)NCCCC[C@H](NC(=O)[C@H](CC(=O)O)NC(=O)[C@H](CO)NC(=O)[C@@H](NC(=O)[C@H](Cc1ccccc1)NC(=O)[C@@H](NC(=O)CNC(=O)[C@H](CCC(N)=O)NC(=O)C(C)(C)NC(=O)[C@@H](N)Cc1c[nH]cn1)[C@@H](C)O)[C@@H](C)O)C(=O)N[C@@H](CO)C(=O)N[C@@H](CCCCN)C(=O)N[C@@H](Cc1ccc(O)cc1)C(=O)N[C@@H](CC(C)C)C(=O)N[C@@H](CC(=O)O)C(=O)NC(C)(C)C(=O)N[C@@H](CCCNC(=N)N)C(=O)N[C@@H](C)C(=O)N[C@@H](C)C(=O)N[C@@H](CCC(N)=O)C(=O)N[C@@H](CC(=O)O)C(=O)N[C@@H](Cc1ccccc1)C(=O)N[C@H](C(=O)N[C@H]1CCCC=CCCC[C@@H](C(=O)N[C@H](C(=O)N[C@@H](CCCCN)C(=O)N[C@@H](CCC(N)=O)C(=O)O)[C@@H](C)O)NC(=O)[C@H](CC(C)C)NC(=O)[C@H](CC(C)C)NC(=O)[C@H](Cc2c[nH]c3ccccc23)NC1=O)C(C)C)C(=O)O)C(=O)O [compound 16] (H-H[Aib]QGTFTSDK([γGlu-γGlu-Palmitoyl])SKYLD[Aib]RAAQDFV[Nle(6-ylidene)]WLL[Nle(6-ylidene)]TKQ-OH; staple 24-28) | 2.67 | – | – | – | –
4 | HXQGTFTSDXSKYLDEXAAQDFVXWLLDT (as printed: HsQGTFTSDK(γEγEC16)SKYLDE*R6meAAQDFV*S7meWLLDT-NH2; s = D-Serine (position 2); Lys 10 conjugated to C16 fatty acid via γEγE; *R6me (position 17) and *S7me (position 24) cyclized to form a double bond containing ring; C-terminal amide) [peptide of SEQ ID NO: 8 (TP398)] | – | – | – | 2.28 | 5
5 | H[Aib]QGTFTSDKSKYLD[Aib]RAAQDFV[Gly(pent-4-enyl)]WLL[Gly(pent-4-enyl)]TK-NH2 (staple 24-28; not fully specified (residue 30); printed as HUQGTFTSDKSKYLDURAAQDFV*S5HWLL*S5HTKγE-NH2; also: Lys 30 conjugated by a gamma-glutamic acid (KγE)) [peptide of SEQ ID NO: 18 (TP 557)] | – | – | – | 0.13 | 4.25
6 | HXQGTFTSDXSKYLDERAAXDFVXWLLDT (as printed in Table 1: HsQGTFTSDK(γEγEC16)SKYLDERAA*S5HDFV*S5HWLLDT-NH2 (Table 2 prints HSQ...); s = D-Serine (position 2); Lys 10 conjugated to C16 fatty acid via γEγE; two *S5H = (S)-2-aminohept-6-enoic acid (positions 20 and 24) cyclized to form a double bond containing ring; C-terminal amide) [peptide of SEQ ID NO: 15 (TP506)] | – | – | – | 1.5 | 0.67
7 | H[dS]QGTFTSDK([γGlu-γGlu-Palmitoyl])SKYLDERAA[R6me]DFVQWL[S7]DT-NH2 (staple 20-27) [peptide of SEQ ID NO: 10 (TP399)] | – | – | – | 0.45 | 8.64
8 | H[Aib]QGTFTSDK([γGlu-γGlu-Palmitoyl])SKYLD[Aib]RAAQDFV[Gly(pent-4-enyl)]WLL[Gly(pent-4-enyl)]TK-NH2 (staple 24-28; not fully specified (residue 30); printed as HUQGTFTSDK(γEγEC16)SKYLDURAAQDFV*S5HWLL*S5HTKγE-NH2; also: Lys 30 conjugated by a gamma-glutamic acid (KγE)) [peptide of SEQ ID NO: 16 (TP551)] | – | – | – | 0.18 | 0.48
9 | HXQGTFTSDKSKYLDERAAXDFVXWLLDT (as printed: HsQGTFTSDKSKYLDERAA*S5meDFV*S5meWLLDT-NH2; s = D-Serine (position 2); two *S5me (positions 20 and 24) cyclized to form a double bond containing ring; C-terminal amide) [peptide of SEQ ID NO: 19 (TP 558)] | – | – | – | 2.79 | 2.15
10 | H[dS]QGTFTSDKSKYLDERAA[R6me]DFVQWL[S7]DT-NH2 (staple 20-27) [peptide of SEQ ID NO: 11 (TP 399)] | – | – | – | 2.74 | 5
11 | H[Aib]QGTFTSDK([γGlu-γGlu-Palmitoyl])SKYLD[Aib]RAAQDFV[S5]WLM[S5]TK-NH2 (staple 24-28; not fully specified (residue 30); printed as HUQGTFTSDK(γEγEC16)SKYLDURAAQDFV*S5meWLM*S5meTKγE-NH2; also: Lys 30 conjugated by a gamma-glutamic acid (KγE)) [peptide of SEQ ID NO: 14 (TP402)] | – | – | – | 0.13 | 4.56
12 | H[dS]QGTFTSDKS[R6me]YLDERA[S7]QDFVQWLLDT-NH2 (staple 12-19) [peptide of SEQ ID NO: 6 (TP397)] | – | – | – | 5.3 | 20
13 | H[dS]QGTFTSDKSKYLDE[R6me]AAQDFV[S7]WLLDT-NH2 (staple 17-24) [peptide of SEQ ID NO: 9 (TP398)] | – | – | – | 5 | 5
14 | HXQGTFTSDXSXYLDERAXQDFVQWLLDT (as printed: HsQGTFTSDK(γEγEC16)S*R6meYLDERA*S7meQDFVQWLLDT-NH2; s = D-Serine (position 2); Lys 10 conjugated to C16 fatty acid (-CO-(CH2)14-CH3) via γ-glutamic acid-γ-glutamic acid; *R6me (position 12) and *S7me (position 19) cyclized to form a double bond containing ring; C-terminal amide) [peptide of SEQ ID NO: 7 (TP397)] | – | – | – | 0.77 | 5
15 | HXQGTFTSDKSKYLDERAAXDFVXWLLDT (as printed: HsQGTFTSDKSKYLDERAA*S5HDFV*S5HWLLDT-NH2; s = D-Serine (position 2); two *S5H (positions 20 and 24) cyclized to form a double bond containing ring; C-terminal amide) [peptide of SEQ ID NO: 17 (TP 556)] | – | – | – | 2.38 | 3.38
16 | H[Aib]QGTFTSDK([γGlu-γGlu-Palmitoyl])SKYLD[Aib]RAAQ[R6me]FVQWLM[S7]TK-NH2 (staple 21-28; not fully specified (residue 30); printed as HUQGTFTSDK(γEγEC16)SKYLDURAAQ*R6meFVQWLM*S7meTKγE-NH2; also: Lys 30 conjugated by a gamma-glutamic acid (KγE)) [peptide of SEQ ID NO: 13 (TP401)] | – | – | – | 0.26 | 5
